The values below come from PMC6337079, “Exploring Novel Functions of the Small GTPase Ypt1p under Heat-Shock by Characterizing a Temperature-Sensitive Mutant Yeast Strain, ypt1-G80D” (International Journal of Molecular Sciences, 2019).

The data set deals with the molecule itself. The data set is described as follows: native gel or EMSA; purified protein (3 μg/μL) incubated at 25 °C or 45 °C for 30 min, native-PAGE, silver-stained; self-association.

B1: Ypt1p^G80D (purified bacterially expressed recombinant) (natural protein)
chain: not shown
notes: Ypt1p of Saccharomyces cerevisiae with G80D, from the plasmid pGEX-ypt1^G80D (pGEX-2T, BamHI/HindIII insert); source: E. coli BL21(DE3)pLysS, purified (GSH-agarose, thrombin cleavage, TSK heparin-5PW HPLC, ATP-agarose)
B1: the binding result is on record as “binds”.

B2: Ypt1p (purified bacterially expressed recombinant) (natural protein)
chain: not shown
notes: Ypt1p, Rab family small GTPase of Saccharomyces cerevisiae, from the plasmid pGEX-YPT1; monomer printed as 23.5 kDa; also called native Ypt1p; wild-type Ypt1p; source: E. coli BL21(DE3)pLysS, purified (GSH-agarose, thrombin cleavage, TSK heparin-5PW HPLC, ATP-agarose)
Consider B2, for which the binding result is reported as “binds”.
